Laboratory results taken from patent US7169567 (GENERAL HOSPITAL, dated 2007).
Where no end group is shown, it is not given here.

What was measured:
Assay in all cases: cell-based or functional assay
human PTH-1 receptor = target: T1, human PTH-1 receptor (human, UniProt Q03431 27-593)
T1 sequence (looked up): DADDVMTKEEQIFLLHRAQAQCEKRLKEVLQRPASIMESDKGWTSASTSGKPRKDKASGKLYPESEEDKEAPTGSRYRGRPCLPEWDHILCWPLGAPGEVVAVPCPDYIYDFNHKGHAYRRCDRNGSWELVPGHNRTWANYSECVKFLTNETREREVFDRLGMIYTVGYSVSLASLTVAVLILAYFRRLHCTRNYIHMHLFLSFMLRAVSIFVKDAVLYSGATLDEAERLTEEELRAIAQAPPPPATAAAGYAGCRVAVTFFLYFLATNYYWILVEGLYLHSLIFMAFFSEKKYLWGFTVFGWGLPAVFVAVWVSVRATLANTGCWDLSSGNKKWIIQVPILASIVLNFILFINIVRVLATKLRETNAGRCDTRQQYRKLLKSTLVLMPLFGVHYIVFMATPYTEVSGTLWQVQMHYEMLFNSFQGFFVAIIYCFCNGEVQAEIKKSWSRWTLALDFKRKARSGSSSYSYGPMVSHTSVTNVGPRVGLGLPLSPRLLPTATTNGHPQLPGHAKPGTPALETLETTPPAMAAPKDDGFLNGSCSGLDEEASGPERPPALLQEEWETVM

[1] = target: intact rat PTH-1 receptor with HA epitope tag (rWT-HA) (rat, UniProt P25961 23-92; P25961 27-591)
[2] = target: T2, truncated rat PTH-1 receptor rΔNt (rat, UniProt P25961 182-591)
T2 sequence: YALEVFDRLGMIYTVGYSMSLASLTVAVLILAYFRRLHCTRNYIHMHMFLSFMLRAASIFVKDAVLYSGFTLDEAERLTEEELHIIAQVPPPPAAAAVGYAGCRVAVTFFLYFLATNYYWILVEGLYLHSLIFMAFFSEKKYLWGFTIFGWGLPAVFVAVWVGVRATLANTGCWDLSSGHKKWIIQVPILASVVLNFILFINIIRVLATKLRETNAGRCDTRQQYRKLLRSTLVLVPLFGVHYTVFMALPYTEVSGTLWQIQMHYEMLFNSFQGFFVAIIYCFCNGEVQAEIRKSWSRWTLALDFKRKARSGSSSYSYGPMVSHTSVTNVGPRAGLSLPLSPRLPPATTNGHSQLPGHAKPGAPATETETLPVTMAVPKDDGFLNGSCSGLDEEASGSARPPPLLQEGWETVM

intact rat PTH-1 receptor with HA epitope tag (rWT-HA), sequence (P25961 whole entry, the tested form may be a part, one chain of several): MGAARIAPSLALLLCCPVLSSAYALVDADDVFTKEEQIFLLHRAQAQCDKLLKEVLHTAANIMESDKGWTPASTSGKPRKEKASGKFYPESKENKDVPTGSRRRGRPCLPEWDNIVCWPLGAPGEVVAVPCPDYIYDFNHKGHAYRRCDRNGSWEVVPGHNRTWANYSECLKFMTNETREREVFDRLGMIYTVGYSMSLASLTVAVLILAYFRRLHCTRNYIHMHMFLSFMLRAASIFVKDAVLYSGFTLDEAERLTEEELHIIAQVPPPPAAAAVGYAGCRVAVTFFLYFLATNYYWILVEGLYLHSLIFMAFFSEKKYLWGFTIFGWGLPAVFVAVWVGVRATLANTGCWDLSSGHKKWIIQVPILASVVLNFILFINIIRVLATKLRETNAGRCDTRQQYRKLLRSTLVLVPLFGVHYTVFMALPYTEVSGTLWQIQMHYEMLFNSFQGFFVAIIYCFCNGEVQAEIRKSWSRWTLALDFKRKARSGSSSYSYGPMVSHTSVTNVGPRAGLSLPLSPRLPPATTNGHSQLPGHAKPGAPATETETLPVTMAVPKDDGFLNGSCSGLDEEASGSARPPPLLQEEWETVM

cAMP formation over the basal level (human PTH-1 receptor): ~20 fold
cAMP potency relative to PTH(1-34) (human PTH-1 receptor): ~5 orders of magnitude
cAMP formation [1]: 15 fold
cAMP potency relative to PTH(1-34) [2]: 2 orders of magnitude
B1: rat PTH(1-14) (peptide, UniProt P04089 32-45, looked up)
peptide: AVSEIQLMHNLGKH-NH2
